# Measured values as given in article PMC8442969.
# Columns and labels:
# Assay in all cases: NMR titration
# [1] = molecular target: human mono-ubiquitin, N-terminally 6xHis tagged (made in house, for NMR) (human) (UniProt P0CG48)
# [2] = molecular target: human CSNAP (CSN Acidic Protein), GST tag removed (human)
# [3] = molecular target: human DSS1 (Deletion of Split-hand/Split-foot 1), GST tag removed (human)
substance,measurement,setting,value
"human DSS1 (Deletion of Split-hand/Split-foot 1), GST tag removed (natural protein)",Kd,[1],0.43 mM
"human mono-ubiquitin, N-terminally 6xHis tagged (made in house, for NMR) (from UniProt P0CG48 1-76) (natural protein)","KD(app), first of two groups of residues",[2],0.8 mM
same,"KD(app), second of two groups of residues",[2],2 mM
same,KD of site UBS2 (apparent),[3],1.8 mM
